Patent US10221225B2, “Peptides and combination of peptides and scaffolds thereof for use in immunotherapy against colorectal carcinoma (CRC) and other cancers” (immatics biotechnologies GmbH, priority 2015, dated 2019)

Target: HLA-A*02:01 (Homo sapiens, UniProt P04439, D140Y/D185E/D98H/E176V/E277Q/G131W/G231S/I119V/I121R/I166T/I218V/L300P/L318F/N151K/N90K/P208A/P217A/Q86G/Q94H/R138H/R169H/T345S)
Experiment: MHC binding assay (UV-ligand exchange, beta2m ELISA, peptide exchange yield)
Settings: MHC class I binding score; binding to HLA-A*02:01 ranged by peptide exchange yield (UV-ligand exchange, β2m ELISA)
Text: Candidate peptides for T cell based therapies according to the present invention were further tested for their MHC binding capacity (affinity). The individual peptide-MHC complexes were produced by UV-ligand exchange, where a UV-sensitive peptide is cleaved upon UV-irradiation, and exchanged with the peptide of interest as analyzed. Only peptide candidates that can effectively bind and stabilize the peptide-receptive MHC molecules prevent dissociation of the MHC complexes. To determine the yield of the exchange reaction, an ELISA was performed based on the detection of the light chain (β2m) of stabilized MHC complexes. The assay was performed as generally described in Rodenko et al. (Rodenko et al., 2006).
96 well MAXISorp plates (NUNC) were coated over night with 2 ug/ml streptavidin in PBS at room temperature, washed 4× and blocked for 1 h at 37° C. in 2% BSA containing blocking buffer. Refolded HLA-A*02:01/MLA-001 monomers served as standards, covering the range of 15-500 ng/ml. Peptide-MHC monomers of the UV-exchange reaction were diluted 100 fold in blocking buffer. Samples were incubated for 1 h at 37° C., washed four times, incubated with 2 ug/ml HRP conjugated anti-β2m for 1 h at 37° C., washed again and detected with TMB solution that is stopped with […]. Absorption was measured at 450 nm. Candidate peptides that show a high exchange yield (preferably higher than 50%, most preferred higher than 75%) are generally preferred for a generation and production of antibodies or fragments thereof, and/or T cell receptors or fragments thereof, as they show sufficient avidity to the MHC molecules and prevent dissociation of the MHC complexes.

88 (KLDIKVETV; listed as Homo sapiens) [compound 88]
Peptide exchange: ″++++″ (≥75% = ++++)

89 (SLIEYEFRV; listed as Homo sapiens) [compound 89]
Peptide exchange: ″+++″ (≥50 = +++)

90 (GLLKPGLNVVL; listed as Homo sapiens) [compound 90]
Peptide exchange: ″+++″ (≥50 = +++)

91 (TVDVATPSV; listed as Homo sapiens) [compound 91]
Peptide exchange: ″+++″ (≥50 = +++)

92 (WIDDTSAFV; listed as Homo sapiens) [compound 92]
Peptide exchange: ″+++″ (≥50 = +++)

93 (SLQELRLLL; listed as Homo sapiens) [compound 93]
Peptide exchange: ″++++″ (≥75% = ++++)

94 (KSMDIVLTV; listed as Homo sapiens) [compound 94]
Peptide exchange: ″+++″ (≥50 = +++)

95 (AILDAHIEV; listed as Homo sapiens) [compound 95]
Peptide exchange: ″++++″ (≥75% = ++++)

96 (KLYSRLVYV; listed as Homo sapiens) [compound 96]
Peptide exchange: ″++″ (≥20% = ++)

97 (ALWWGVVTV; listed as Homo sapiens) [compound 97]
Peptide exchange: ″++″ (≥20% = ++)

98 (AMNGKSFSV; listed as Homo sapiens) [compound 98]
Peptide exchange: ″++″ (≥20% = ++)

99 (KLLEVDLDTV; listed as Homo sapiens) [compound 99]
Peptide exchange: ″+++″ (≥50 = +++)

100 (SLDDFLATA; listed as Homo sapiens) [compound 100]
Peptide exchange: ″+++″ (≥50 = +++)

101 (GLSEGHTFQV; listed as Homo sapiens) [compound 101]
Peptide exchange: ″+++″ (≥50 = +++)

102 (KILVSLIEV; listed as Homo sapiens) [compound 102]
Peptide exchange: ″+++″ (≥50 = +++)

103 (FLFGYPKRL; listed as Homo sapiens) [compound 103]
Peptide exchange: ″++″ (≥20% = ++)

104 (ILLTIKDDTIYL; listed as Homo sapiens) [compound 104]
Peptide exchange: ″+++″ (≥50 = +++)

105 (YALDLSTFL; listed as Homo sapiens) [compound 105]
Peptide exchange: ″+++″ (≥50 = +++)

106 (SLISEKILL; listed as Homo sapiens) [compound 106]
Peptide exchange: ″+++″ (≥50 = +++)

107 (ALLGGGPYML; listed as Homo sapiens) [compound 107]
Peptide exchange: ″+++″ (≥50 = +++)

108 (SLAELVPGVGGI; listed as Homo sapiens) [compound 108]
Peptide exchange: ″+++″ (≥50 = +++)

109 (ALDGDQMEL; listed as Homo sapiens) [compound 109]
Peptide exchange: ″++″ (≥20% = ++)

110 (LLGELPRLLLL; listed as Homo sapiens) [compound 110]
Peptide exchange: ″+++″ (≥50 = +++)

112 (KLGQVLIYL; listed as Homo sapiens) [compound 112]
Peptide exchange: ″++″ (≥20% = ++)

113 (ILYDLQQNL; listed as Homo sapiens) [compound 113]
Peptide exchange: ″++″ (≥20% = ++)

114 (TAVGHALVL; listed as Homo sapiens) [compound 114]
Peptide exchange: ″+″ (≥10% = +)

115 (SLFDVSHML; listed as Homo sapiens) [compound 115]
Peptide exchange: ″+++″ (≥50 = +++)

116 (LVYQFVHPI; listed as Homo sapiens) [compound 116]
Peptide exchange: ″++″ (≥20% = ++)

117 (TLQPVDNSTISL; listed as Homo sapiens) [compound 117]
Peptide exchange: ″++″ (≥20% = ++)

118 (LLADLKTMV; listed as Homo sapiens) [compound 118]
Peptide exchange: ″+++″ (≥50 = +++)

119 (ILYQTVTGL; listed as Homo sapiens) [compound 119]
Peptide exchange: ″++″ (≥20% = ++)

120 (VLYEGVDEV; listed as Homo sapiens) [compound 120]
Peptide exchange: ″++″ (≥20% = ++)

121 (SLAPNIISQL; listed as Homo sapiens) [compound 121]
Peptide exchange: ″+++″ (≥50 = +++)

122 (SLMGMVLKL; listed as Homo sapiens) [compound 122]
Peptide exchange: ″+++″ (≥50 = +++)

125 (KLGDFGLLVEL; listed as Homo sapiens) [compound 125]
Peptide exchange: ″++++″ (≥75% = ++++)

126 (TLAKYLMEL; listed as Homo sapiens) [compound 126]
Peptide exchange: ″+++″ (≥50 = +++)

128 (MLDDRAYLV; listed as Homo sapiens) [compound 128]
Peptide exchange: ″++″ (≥20% = ++)

129 (VLIDVLKEL; listed as Homo sapiens) [compound 129]
Peptide exchange: ″+++″ (≥50 = +++)

130 (GLGGSQLIDTHL; listed as Homo sapiens) [compound 130]
Peptide exchange: ″++″ (≥20% = ++)

131 (KLLDVVHPA; listed as Homo sapiens) [compound 131]
Peptide exchange: ″++″ (≥20% = ++)

134 (GVAGGSILKGV; listed as Homo sapiens) [compound 134]
Peptide exchange: ″++++″ (≥75% = ++++)

135 (KLQEEIPVL; listed as Homo sapiens) [compound 135]
Peptide exchange: ″++″ (≥20% = ++)

137 (QLTEIKPLL; listed as Homo sapiens) [compound 137]
Peptide exchange: ″+++″ (≥50 = +++)

138 (KQFEGTVEI; listed as Homo sapiens) [compound 138]
Peptide exchange: ″+++″ (≥50 = +++)

139 (VLLNEILEQV; listed as Homo sapiens) [compound 139]
Peptide exchange: ″+++″ (≥50 = +++)

140 (LLNEILEQV; listed as Homo sapiens) [compound 140]
Peptide exchange: ″+++″ (≥50 = +++)

143 (KLSDVWKEL; listed as Homo sapiens) [compound 143]
Peptide exchange: ″+++″ (≥50 = +++)

144 (LLNDRIWLA; listed as Homo sapiens) [compound 144]
Peptide exchange: ″+++″ (≥50 = +++)

145 (LLLEVVKQV; listed as Homo sapiens) [compound 145]
Peptide exchange: ″+++″ (≥50 = +++)

146 (ALSDETWGL; listed as Homo sapiens) [compound 146]
Peptide exchange: ″++″ (≥20% = ++)

147 (TLTELRAFL; listed as Homo sapiens) [compound 147]
Peptide exchange: ″++++″ (≥75% = ++++)

148 (RLLENMTEVV; listed as Homo sapiens) [compound 148]
Peptide exchange: ″+++″ (≥50 = +++)

149 (YQFDKVGILTL; listed as Homo sapiens) [compound 149]
Peptide exchange: ″+++″ (≥50 = +++)

151 (SAQGSDVSLTACKV; listed as Homo sapiens) [compound 151]
Peptide exchange: ″+++″ (≥50 = +++)

152 (KLLAVIHEL; listed as Homo sapiens) [compound 152]
Peptide exchange: ″++″ (≥20% = ++)

153 (ILFSEDSTKLFV; listed as Homo sapiens) [compound 153]
Peptide exchange: ″+++″ (≥50 = +++)

154 (KLPSETIFVGC; listed as Homo sapiens) [compound 154]
Peptide exchange: ″+++″ (≥50 = +++)

155 (RLLGEEVVRV; listed as Homo sapiens) [compound 155]
Peptide exchange: ″+++″ (≥50 = +++)

156 (SLMMTIINL; listed as Homo sapiens) [compound 156]
Peptide exchange: ″++++″ (≥75% = ++++)
